Columns and labels:
[1] = target: sNAp of A/Vietnam/1203/2004 (VN04, H5N1) NA (Influenza A virus A/Vietnam/1203/2004 …, UniProt Q6DPL2, stabilised); assay: ELISA; settings: both partners purified
[2] = target: T1, N1-CA09-sNAp, stabilized neuraminidase protein of A/California/04/2009 (H1N1) (Influenza A virus A/California/04/2009 …, stabilised); assay: cryo-EM structure; settings: both partners purified
T1 chain: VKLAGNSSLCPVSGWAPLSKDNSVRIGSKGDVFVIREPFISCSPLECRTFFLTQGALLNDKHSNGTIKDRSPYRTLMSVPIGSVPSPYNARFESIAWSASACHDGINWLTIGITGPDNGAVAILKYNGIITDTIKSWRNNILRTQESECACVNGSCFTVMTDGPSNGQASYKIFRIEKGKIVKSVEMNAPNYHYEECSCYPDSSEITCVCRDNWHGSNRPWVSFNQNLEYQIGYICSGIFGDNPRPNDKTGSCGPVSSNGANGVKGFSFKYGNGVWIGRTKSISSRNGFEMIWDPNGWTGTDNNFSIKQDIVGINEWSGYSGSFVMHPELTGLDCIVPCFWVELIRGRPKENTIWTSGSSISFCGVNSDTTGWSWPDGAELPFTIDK

Binder	binding result [1]	stoichiometry N [2] [Fabs per NA tetramer]
NCS.1.1 mAb (IgG) (antibody, V domains shown, copies: 2 + 2) VH: QVQLQESGPRLVKPSETLSLTCSVSGESISSGGYYWTWIRQHPGKGLEWIGNIFDTGSTDYSPSLKTRLTISIDTSKNQFYLRLNSATAADTAVYYCARVGFSLETDRPYYLGLDVWGQGTTVTVSS VL: DIVMTQSPLSLPVTPGEPASISCRSSQSLLHSNGYTYLDWYLQKPGQSPQLLISFTSNRASGVPDRFSGSGSGTYFTLKISRVEAEDVGVYYCMQAVQTPWTFGQGTKVEIK	binds	
NCS.1.1 Fab (Fab, V domains shown) VH: QVQLQESGPRLVKPSETLSLTCSVSGESISSGGYYWTWIRQHPGKGLEWIGNIFDTGSTDYSPSLKTRLTISIDTSKNQFYLRLNSATAADTAVYYCARVGFSLETDRPYYLGLDVWGQGTTVTVSS VL: DIVMTQSPLSLPVTPGEPASISCRSSQSLLHSNGYTYLDWYLQKPGQSPQLLISFTSNRASGVPDRFSGSGSGTYFTLKISRVEAEDVGVYYCMQAVQTPWTFGQGTKVEIK		4
NCS.1.3 mAb (IgG) (antibody, V domains shown, copies: 2 + 2) VH: QVQLQESGPRLVKPSETLSLTCSVSGESISSGGYYWTWIRQHPGKGLEWIGNIFDTGSTDYSPSLKTRLTISIDTSKNQFYLRLTSATAADTAVYYCARVGFSLETDRPYYLGLDVWGQGTTVTVSS VL: DIVMTQSPLTLPVTPGEPASISCRSSQSLLHSNGYTYLDWYLQKPGQSPQLLIYFASNRASGVPDRFSGSGSGTYFTLKISRVEAEDVGVYYCMQAVQSPWTFGQGTKVEIK	binds	

— paper doi:10.1101/2024.11.27.625426 (bioRxiv, 2024)
